Measurements as given in patent publication US7052704B2, “Methods and compositions for lipidization of hydrophilic molecules” (University of Southern California, priority 1995, dated 2006).

Columns and labels:
[1] = iv-biodistribution of 125I-BBI conjugates
C3H 10T1/2 cells = test: Plating efficiency in conjunction with transformation assay; type: cell-based; details: 200 cells/dish, 10 days; conjugates 1.0 μg/ml after MCA 1 μg/ml 24 hr
Experimental: The plating efficiency (PE) of the cells was also studied in conjunction with each of the transformation assays. To determine the PE of the cells in the different treatment groups, cells (200 cells/dish) were seeded into three 60-mm petri dishes per experiment group and treated in the identical manner as the transformation assay cells. The cells in these assays were terminated at 10 days, fixed with 100% methanol, and stained with giemsa; the colonies of 50 cells or more visible under a microscope were then counted. The plating efficiency is defined as the (number of colonies/number of cells seeded)*100.

Caco-2 monolayers = test: Transport of single- and multiple-conjugates across Caco-2 monolayers in transwells; type: cell-based, Human
Experimental: Confluent cell monolayers, 2 to 3 weeks old, and having a TEER value of approximately 500 Ωcm^2, were first incubated with Dulbecco's MEM containing 1% of FBS for 30 min at 37° C. Subsequently, the incubation medium was removed, and the ^125I-BBI (10 μg/ml) conjugates in 1.5 ml of the medium was added to the apical chamber of the transwells. To the basal chamber, 2.5 ml of the medium was added and the transwells were incubated at 37° C. At predetermined times, the entire basal chamber medium (2.5 ml) from each transwell was removed and counted for radioactivity using a gamma counter. In each experiment, typically seven samples were taken at 1, 2, 3, 4, 5, 6 and 24 hr post-incubation. After the 24 hr samples were taken, the cell monolayers were rinsed three times with ice-cold PBS, cut out of the inserts, and counted for accumulated radioactivity using a gamma counter.
The integrity of the ^125I-BBI conjugates transported across the monolayers was studied using Sephadex G50 gel-filtration chromatography. Briefly, after the basal medium was sampled at 24 hr, 1.0 ml of the medium was centrifuged at 2000 rpm and then eluted from a G50 column (10 ml) using PBS; 1 ml fractions were collected and the fraction-associated radioactivity was determined using a gamma counter. Intact conjugates eluted at column void volume and fragments smaller than 1 kDa were eluted at or above the column volume.
In the transwell experiments, the conjugates were incubated with the apical side of the cells for 1 hr at 37° C. The transwells were then rinsed three times with ice-cold PBS and then reincubated with serum free medium. The release of the conjugates into the apical and the basal medium was chased for 24 hr by counting the entire basal or the apical medium at different times. The total counts obtained at the end of the chase period (transwells+media counts were added, and the release of the conjugates (% of total) at different times was calculated. To ensure that the counts obtained in the transwells at 24 hr were due to the presence of the conjugates in the cells and not non-specific binding to the plastic, the transwells were exposed to trypsin for 10 min, rinsed three times with ice-cold pbs, and subsequently counted for accumulated radioactivity.
BBI was modified with 2 or 4 palmitic acids, and the transport was determined in transwells. The cumulative transport of BBI, BBI modified with 4 palmitic acids, and BBI modified with 2 palmitic acids in Caco-2 monolayers were determined as BBI (ng/monolayer) ± SEM, n=3. The order of the transport extent was BBIssPal(4)>BBI>BBIssPal(2). The results of the internalization of the conjugates into the same cells were determined as the ng of BBI internalized per monolayer. […] The basal media obtained at 24 hr from the transwells was analyzed using a G50 column. […] However, a small, but significant, amount of the basal media of BBIssPal(2) consisted of intact conjugate. This quantity consisted of between about 10 and about 20% of the total radioactivity present in the basal medium.

[2] = Skin absorption of 125I-labeled BBI or BBIssPal; details: 5 μl of 0.5 mg/ml on 0.38 cm^2, 30 minutes, 23° C.

B1: BBI: hydrophilic protein which has low uptake into cells and is not orally bioavailable; used for chemoprevention (protein, UniProt P01055 40-110, looked up)
Bowman-Birk type proteinase …: DDESSKPCCDQCACTKSNPPQCRCSDMRLNSCHSACKSCICALSYPAQCFCVDITDFCYEPCKPSEDDKEN
- kidney accumulation ([1]; 3 mg/kg): rapidly accumulated in the kidneys
- blood level and removal from circulation ([1]; 3 mg/kg, 0.5, 3 and 24 hr): rapidly excreted from the body without attaining high blood levels
- Plating Efficiency (%) (C3H 10T1/2 cells): 24 ± 2.0%
- order of the transport extent (cumulative transport) (Caco-2 monolayers; Caco-2 transwells, n=3): BBIssPal(4)>BBI>BBIssPal(2)
- transcytosis across the monolayers (G50 analysis of basal media) (Caco-2 monolayers; basal media at 24 hr): neither BBI nor BBIssPal(4) was transcytosed
- absorption into the mouse skins [2]: 0.14 μg/cm^2
